From FireProtDB (doi:10.1093/protein/14.11.891)

Details: Salmonella typhimurium (strain LT2 / SGSC1412 / ATCC 700720), pH 7, CD, Potassium phosphate 10 mM, reversible: yes, whole UniProt chain shown

B1: Sialidase wild type, P29768 (protein)
chain: MTVEKSVVFKAEGEHFTDQKGNTIVGSGSGGTTKYFRIPAMCTTSKGTIVVFADARHNTASDQSFIDTAAARSTDGGKTWNKKIAIYNDRVNSKLSRVMDPTCIVANIQGRETILVMVGKWNNNDKTWGAYRDKAPDTDWDLVLYKSTDDGVTFSKVETNIHDIVTKNGTISAMLGGVGSGLQLNDGKLVFPVQMVRTKNITTVLNTSFIYSTDGITWSLPSGYCEGFGSENNIIEFNASLVNNIRNSGLRRSFETKDFGKTWTEFPPMDKKVDNRNHGVQGSTITIPSGNKLVAAHSSAQNKNNDYTRSDISLYAHNLYSGEVKLIDDFYPKVGNASGAGYSCLSYRKNVDKETLYVVYEANGSIEFQDLSRHLPVIKSYN
Q: With B1 as the protein, how does the “denaturant midpoint (higher = more stable)” value (25 °C, GdnHCl) read?
A: Its value is 1.33 M.

Q: And the unfolding free energy (25 °C, GdnHCl)?
A: The unfolding free energy was 4.24 kcal/mol.

Q: And the Tm (Thermal)?
A: Its Tm is 57 °C.
